Measurements published in the supplement of paper PMC10724198.
± gives the standard deviation of the averaged measurements.

test system: Saccharomyces cerevisiae; test: protein stability index of tFT-peptide fusion (C-terminal peptide) (PSI (0-1 scale)); higher = more stable (slower turnover); settings: genetic background: doa10 deletion; temperature: 30 C
Experimental: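 MPS profiling in S. cerevisiae of the tFT-X12 degron library: putative degron peptides plus stable controls, 12 aa, fused to the C-terminus of a sfGFP-mCherry timer. Cells are FACS-sorted into 8 mCherry/sfGFP bins and deep-sequenced. PSI runs from 0 (unstable) to 1 (stable). Backgrounds are wild type, das1Δ and doa10Δ at 30 °C, and wild type, das1Δ, cdc34-1 and cdc53-1 at 37 °C; 2-3 technical replicates each.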
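Further: PSI is a weighted mean of sequencing reads over stability bins, variants kept only with over 10 reads, mCherry proximal and sfGFP distal, peptide attached via GGGS linker.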

In order of rising protein stability index:
1. LLFCFSVILFTC  0.0562 ± 0.022
2. LLTGRFRILLVV  0.0579 ± 0.017
3. LSVRLYRTVFLV  0.0603 ± 0.012
4. LASSCYRHLLVV  0.0628 ± 0.016
5. MPQSLKKMVFLA  0.0709 ± 0.025
6. LVGWSWRGWFVV  0.0763 ± 0.011
7. KIKQIKINNKIN  0.0896 ± 0.034
8. KTDVYPVSFFTC  0.0924 ± 0.019
9. LLVRYRRALVLL  0.0924 ± 0.015
10. LGSCSLIYRKFS  0.0934 ± 0.0075
11. LRLEFRTNWFLQ  0.101 ± 0.016
12. MALAVRVVLCGA  0.116 ± 0.029
13. LAGLVRFWGCVG  0.122 ± 0.019
14. LIEMVTTRYRLC  0.132 ± 0.0065
15. LPALPFPIPTFA  0.134 ± 0.0084
16. KSRLFCFVYFLL  0.137 ± 0.0024
17. KMKGLINKRKES  0.146 ± 0.0029
18. LVDPFAALRHVV  0.15 ± 0.014
19. KNVFLIRGRKNC  0.154 ± 0.021
20. LFGFILLGVSCC  0.156 ± 0.0021
21. MLLFVSCCVFLF  0.157 ± 0.0093
22. LRKARLFLKAKC  0.17 ± 0.022
23. LRVVLVEWMCVV  0.172 ± 0.011
24. MSRALSVLVVVA  0.172 ± 0.0091
25. LVPLSLLLCFFV  0.178 ± 0.0019
26. LFNRCCTILVVW  0.181 ± 0.0051
27. LLRFFPLLLFSF  0.181 ± 0.0067
28. LRLCMVFAWFLT  0.1836 ± 0.00086
29. LFLIYCFAFSIG  0.194 ± 0.02
30. LVIFSLLFSFSH  0.194 ± 0.0075
31. KIILMCYTLITL  0.2009 ± 0.0016
32. LFVVFVLLTFFV  0.207 ± 0.02
33. LLMCCLPFLWVF  0.2085 ± 0.002
34. LWAPFWVSRVTA  0.21 ± 0.004
35. LFLIFFSFLFLC  0.211 ± 0.0073
36. LLSPFLLMLLFL  0.221 ± 0.01
37. LCYFFFISLFLG  0.2248 ± 0.0011
38. MALAVRVVRCGA  0.227 ± 0.043
39. LQNCRVSVLLGW  0.229 ± 0.0028
40. LSCCIVLLIIFV  0.253 ± 0.0077
41. LLVRYYLFYVLV  0.255 ± 0.0062
42. KYKLYGIMIIEG  0.258 ± 0.012
43. KKKKRVKIQKKN  0.259 ± 0.04
44. LFVSLSFVVFLP  0.261 ± 0.013
45. MTLYSFSSALLA  0.27 ± 0.038
46. LSGVLFSLIRFY  0.274 ± 0.015
47. LVAGFVFIFFYR  0.298 ± 0.0043
48. LVCLTPPPSPFS  0.313 ± 0.009
49. LFSVFSLVLFIF  0.316 ± 0.017
50. KKIKKYTRKLKI  0.323 ± 0.014
51. MGVTVRVEGIRA  0.3374 ± 0.00071
52. LSLWLFRILSVR  0.342 ± 0.0045
53. LPVSLWLVCSFF  0.345 ± 0.023
54. KKNLTHSIRVQA  0.352 ± 0.017
55. LCCTLFFCYSYH  0.374 ± 0.0053
56. LRVVVGLCMCVL  0.385 ± 0.014
57. KVLLYWRHAQRQ  0.387 ± 0.0069
58. LYRIETLFMRAQ  0.389 ± 0.059
59. MRLQLTFSILLF  0.4027 ± 0.0029
60. LCSCMWISAIAI  0.41 ± 0.036
61. LCSLPIVCCFFL  0.424 ± 0.016
62. LCVGFISFCFCL  0.434 ± 0.01
63. LVLVVFCPLWFW  0.4422 ± 0.00092
64. MLIAISASAARF  0.45 ± 0.02
65. LSFLLLLGCFGS  0.453 ± 0.017
66. LQLGFCFVAQFI  0.462 ± 0.03
67. LRFYLLTPPSPA  0.469 ± 0.017
68. LHLSSFVILLEL  0.478 ± 0.023
69. LYVQSVCFSVPR  0.497 ± 0.052
70. LSVYGFYKMPAG  0.521 ± 0.032
71. LMLISFLFLSLL  0.568 ± 0.031
72. LWGLVWGGVWGV  0.5683 ± 0.0018
73. LLCLLLVPQPHR  0.574 ± 0.027
74. LPLSPPPLPSSR  0.639 ± 0.022
75. MMYTLSMLLRLR  0.64799 ± 0.00045
76. LPSLPPPPPPPP  0.654 ± 0.025
77. LKTKKKKTNTQK  0.67 ± 0.033
78. LSPPLRHRLTPP  0.67109 ± 0.00013

same assay, conditions: genetic background: wild type; temperature: 30 C

In order of rising protein stability index:
1. LLTGRFRILLVV  0.0444 ± 0.0073
2. LLFCFSVILFTC  0.0652 ± 0.018
3. LSVRLYRTVFLV  0.0721 ± 0.0073
4. LASSCYRHLLVV  0.0775 ± 0.017
5. MPQSLKKMVFLA  0.0847 ± 0.0032
6. KIKQIKINNKIN  0.092 ± 0.032
7. LVGWSWRGWFVV  0.094 ± 0.029
8. KTDVYPVSFFTC  0.0951 ± 0.026
9. LLVRYRRALVLL  0.0953 ± 0.036
10. LGSCSLIYRKFS  0.0958 ± 0.017
11. LFLIFFSFLFLC  0.114 ± 0.04
12. LLRFFPLLLFSF  0.116 ± 0.016
13. KMKGLINKRKES  0.12 ± 0.05
14. LIEMVTTRYRLC  0.128 ± 0.02
15. LRLEFRTNWFLQ  0.132 ± 0.0047
16. KSRLFCFVYFLL  0.141 ± 0.02
17. LAGLVRFWGCVG  0.141 ± 0.03
18. MALAVRVVLCGA  0.153 ± 0.0088
19. LFGFILLGVSCC  0.168 ± 0.024
20. MLLFVSCCVFLF  0.169 ± 0.032
21. LPALPFPIPTFA  0.173 ± 0.031
22. LVDPFAALRHVV  0.173 ± 0.024
23. KNVFLIRGRKNC  0.193 ± 0.014
24. LFNRCCTILVVW  0.2 ± 0.029
25. LLSPFLLMLLFL  0.2 ± 0.02
26. LVPLSLLLCFFV  0.205 ± 0.015
27. LRVVLVEWMCVV  0.21 ± 0.023
28. LRLCMVFAWFLT  0.216 ± 0.03
29. LFVVFVLLTFFV  0.217 ± 0.031
30. LRKARLFLKAKC  0.219 ± 0.017
31. MSRALSVLVVVA  0.22 ± 0.019
32. KIILMCYTLITL  0.225 ± 0.017
33. LLMCCLPFLWVF  0.228 ± 0.022
34. LVIFSLLFSFSH  0.232 ± 0.015
35. MALAVRVVRCGA  0.233 ± 0.038
36. LFLIYCFAFSIG  0.239 ± 0.021
37. LLVRYYLFYVLV  0.243 ± 0.024
38. KKKKRVKIQKKN  0.244 ± 0.061
39. LQNCRVSVLLGW  0.246 ± 0.036
40. LWAPFWVSRVTA  0.247 ± 0.026
41. LCYFFFISLFLG  0.26 ± 0.023
42. LFVSLSFVVFLP  0.261 ± 0.025
43. KYKLYGIMIIEG  0.262 ± 0.013
44. LSCCIVLLIIFV  0.262 ± 0.029
45. LFSVFSLVLFIF  0.272 ± 0.023
46. MTLYSFSSALLA  0.276 ± 0.016
47. LSGVLFSLIRFY  0.287 ± 0.032
48. LVAGFVFIFFYR  0.319 ± 0.022
49. LVCLTPPPSPFS  0.332 ± 0.016
50. LSLWLFRILSVR  0.341 ± 0.012
51. LHLSSFVILLEL  0.346 ± 0.014
52. LPVSLWLVCSFF  0.358 ± 0.03
53. LYRIETLFMRAQ  0.358 ± 0.019
54. MRLQLTFSILLF  0.37 ± 0.021
55. KKNLTHSIRVQA  0.377 ± 0.021
56. KKIKKYTRKLKI  0.383 ± 0.02
57. MGVTVRVEGIRA  0.383 ± 0.013
58. LCCTLFFCYSYH  0.388 ± 0.019
59. LVLVVFCPLWFW  0.388 ± 0.0094
60. LRVVVGLCMCVL  0.395 ± 0.019
61. LMLISFLFLSLL  0.397 ± 0.023
62. LCSLPIVCCFFL  0.427 ± 0.022
63. LYVQSVCFSVPR  0.431 ± 0.012
64. LCSCMWISAIAI  0.435 ± 0.027
65. LCVGFISFCFCL  0.435 ± 0.014
66. KVLLYWRHAQRQ  0.44 ± 0.0086
67. MLIAISASAARF  0.44 ± 0.034
68. LSFLLLLGCFGS  0.462 ± 0.014
69. LQLGFCFVAQFI  0.476 ± 0.024
70. LSVYGFYKMPAG  0.491 ± 0.0073
71. LRFYLLTPPSPA  0.494 ± 0.02
72. MMYTLSMLLRLR  0.52 ± 0.02
73. LWGLVWGGVWGV  0.573 ± 0.015
74. LLCLLLVPQPHR  0.584 ± 0.019
75. LPSLPPPPPPPP  0.647 ± 0.016
76. LPLSPPPLPSSR  0.663 ± 0.032
77. LSPPLRHRLTPP  0.669 ± 0.015
78. LKTKKKKTNTQK  0.715 ± 0.056
